Data taken from patent US5451522A, “Genes encoding and method of expressing an enzyme: phthalyl amidase” (priority 1994, dated 1995).

Experiments:
[1] = biological target: phthalyl-L-Asp-L-Phe-OMe (compound XIV)
[2] = biological target: T1, phthalyl amidase (Xanthobacter agilis, UniProt P0C2Y0); test: Effect of pH on phthalyl amidase activity (substrate III, HPLC); format: biochemical; details: 50 mM potassium phosphate, 32° C.
T1 construct: 42-aa signal peptide removed
T1 sequence (P0C2Y0 whole entry, looked up): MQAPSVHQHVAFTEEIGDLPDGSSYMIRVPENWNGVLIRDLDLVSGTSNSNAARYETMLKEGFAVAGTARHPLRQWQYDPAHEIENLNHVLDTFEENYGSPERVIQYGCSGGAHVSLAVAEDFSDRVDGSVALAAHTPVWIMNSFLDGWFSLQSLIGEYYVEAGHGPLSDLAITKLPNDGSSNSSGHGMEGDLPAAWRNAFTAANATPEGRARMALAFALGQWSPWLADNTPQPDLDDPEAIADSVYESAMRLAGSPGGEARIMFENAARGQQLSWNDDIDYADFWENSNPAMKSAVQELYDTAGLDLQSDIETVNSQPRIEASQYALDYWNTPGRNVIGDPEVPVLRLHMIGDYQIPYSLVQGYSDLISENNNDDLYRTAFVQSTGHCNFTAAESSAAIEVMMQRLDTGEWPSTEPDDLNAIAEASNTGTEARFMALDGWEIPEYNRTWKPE
Description: The effect of pH on the reaction rate of the analytical scale purified enzyme was determined using phthalamido carbacephem (III) as substrate. [drawing 5]
A typical reaction mixture consisted of 1 ml total volume and contained 0.1 mM III, 0.1 μM phthalyl amidase in 50 mM potassium phosphate buffer (pH 5.5-9.0) at 32° C. for 20 minutes. The reactions were stopped by the addition of 1 ml methanol. After removal of precipitate by centrifugation, an aliquot of the supernatant fraction (typically 30 μ) was monitored for the beta-lactam nucleus and phthalic acid by HPLC using a Zorbax C8 column (0.46×15 cm; MacMod Analytical Inc., Chadds Ford, Pa.). The two reaction products were eluted by a mobile phase constructed as continuous mixed gradients from (a) 1% ACN (acetonitrile)/0.2% TFA (trifluoroacetic acid) and (b) 80% ACN/0.2% TFA as follows: 1) 0% (b), 3 min; 2) 0-50% (b), 0.5 min; 3) 50-100% (b), 3 min; 4) 100% (b), 2.5 min; 5) 100-0% (b), 0.1 min; and 6) 0% (b), 5 min. At a flow rate of 1.5 ml/min, retention times of the beta-lactam nucleus and phthalic acid, as measured at 254 nm, were 2.3 and 7.2 min, respectively.

[3] = biological target: T1, phthalyl amidase; test: Optimum reaction temperature; format: biochemical; details: substrate III, 50 mM potassium phosphate, pH 8.2
Description: Test reactions were carried out similar to Example 5 except that all incubations were performed in 50 mM potassium phosphate buffer at pH 8.2. Solutions of the substrate were pre-incubated for 5 minutes at temperatures between 2° and 60° C. The enzymatic reaction was initiated by the addition of phthalyl amidase and stopped by the addition of 1 ml methanol. Specific activity of the enzyme was determined by monitoring the hydrolysis of III by HPLC as in Example 5.

[4] = biological target: T1, phthalyl amidase; test: Optimum salt concentration; format: biochemical; details: 32° C., substrate III
Description: Test reactions were carried out similar to Example 6 except that buffer concentrations ranging from 10 to 200 mM at 32° C. were examined. All other conditions and analyses were the same.

[5] = biological target: T1, phthalyl amidase; test: Stability of phthalyl amidase (ionic strength, pH, temperature); format: physicochemical
Description: The stability of phthalyl amidase at pH values ranging from 6-9 was determined as described in Example 5 at 30° C. in both 20 and 200 mM potassium phosphate buffer. […] In 200 mM buffer, the enzyme retained at least 80% of its activity for 100 hours irrespective of the pH of the incubating medium.
The phthalyl amidase enzyme was also tested for stability at varying temperatures. The enzyme was incubated at pH 8.2 in the temperature range of 4°-50° C. for 48 hours in 50 and 200 mM phosphate buffer. […] In 200 mM buffer, 80% of the enzyme activity was retained in temperatures up to 35° C. and 30% of the enzyme activity was retained after 48 hours incubation at 40° C.

B1: phthalyl amidase (mature enzyme, purified from Xanthobacter agilis) (enzyme)
chain: QAPSVHQHVAFTEEIGDLPDGSSYMIRVPENWNGVLIRDLDLVSGTSNSNAARYETMLKEGFAVAGTARHPLRQWQYDPAHEIENLNHVLDTFEENYGSPERVIQYGCSGGAHVSLAVAEDFSDRVDGSVALAAHTPVWIMNSFLDGWFSLQSLIGEYYVEAGHGPLSDLAITKLPNDGSSNSSGHGMEGDLPAAWRNAFTAANATPEGRARMALAFALGQWSPWLADNTPQPDLDDPEAIADSVYESAMRLAGSPGGEARIMFENAARGQQLSWNDDIDYADFWENSNPAMKSAVQELYDTAGLDLQSDIETVNSQPRIEASQYALDYWNTPGRNVIGDPEVPVLRLHMIGDYQIPYSLVQGYSDLISENNNDDLYRTAFVQSTGHCNFTAAESSAAIEVMMQRLDTGEWPSTEPDDLNAIAEASNTGTEARFMALDGWEIPEYNRTWKPE
modifications: N-terminus blocked (attempts to sequence the N-terminus of the purified enzyme failed)
Relative Activity (hydrolysis of the substrate by HPLC) (relative activity (compound III = 100.0)) [1]: 118

B2: phthalyl amidase: enzyme from Xanthobacter agilis that removes the phthalyl moiety from phthalyl-containing amides (protein)
chain: QAPSVHQHVAFTEEIGDLPDGSSYMIRVPENWNGVLIRDLDLVSGTSNSNAARYETMLKEGFAVAGTARHPLRQWQYDPAHEIENLNHVLDTFEENYGSPERVIQYGCSGGAHVSLAVAEDFSDRVDGSVALAAHTPVWIMNSFLDGWFSLQSLIGEYYVEAGHGPLSDLAITKLPNDGSSNSSGHGMEGDLPAAWRNAFTAANATPEGRARMALAFALGQWSPWLADNTPQPDLDDPEAIADSVYESAMRLAGSPGGEARIMFENAARGQQLSWNDDIDYADFWENSNPAMKSAVQELYDTAGLDLQSDIETVNSQPRIEASQYALDYWNTPGRNVIGDPEVPVLRLHMIGDYQIPYSLVQGYSDLISENNNDDLYRTAFVQSTGHCNFTAAESSAAIEVMMQRLDTGEWPSTEPDDLNAIAEASNTGTEARFMALDGWEIPEYNRTWKPE
Specific Activity ([2]; pH 7.0, substrate III 0.1 mM): 125.4 μmol/min/μmol enzyme
Specific Activity ([2]; pH 7.2, substrate III 0.1 mM): 130.4 μmol/min/μmol enzyme
Specific Activity ([2]; pH 7.4, substrate III 0.1 mM): 155.2 μmol/min/μmol enzyme
Specific Activity ([2]; pH 7.6, substrate III 0.1 mM): 172.5 μmol/min/μmol enzyme
Specific Activity ([2]; pH 7.8, substrate III 0.1 mM): 184.2 μmol/min/μmol enzyme
Specific Activity ([2]; pH 8.0, substrate III 0.1 mM): 195.3 μmol/min/μmol enzyme
Specific Activity ([2]; pH 8.2, substrate III 0.1 mM): 201.2 μmol/min/μmol enzyme
Specific Activity ([2]; pH 8.4, substrate III 0.1 mM): 208.0 μmol/min/μmol enzyme
Specific Activity ([2]; pH 8.6, substrate III 0.1 mM): 181.7 μmol/min/μmol enzyme
Specific Activity ([2]; pH 8.8, substrate III 0.1 mM): 185.1 μmol/min/μmol enzyme
Specific Activity ([2]; pH 9.0, substrate III 0.1 mM): 33.1 μmol/min/μmol enzyme
enzyme activity below 10° C. and above 50° C. (in words) [3]: Little enzyme activity
temperature of maximum reaction rate [3]: 34 °C
Specific Activity ([4]; K Phosphate buffer 10 mM): 148 μmol/min/μmol enzyme
Specific Activity ([4]; K Phosphate buffer 50 mM): 300 μmol/min/μmol enzyme
Specific Activity ([4]; K Phosphate buffer 100 mM): 350 μmol/min/μmol enzyme
Specific Activity ([4]; K Phosphate buffer 200 mM): 360 μmol/min/μmol enzyme
Specific Activity ([4]; NH4 Acetate buffer 10 mM): 25 μmol/min/μmol enzyme
Specific Activity ([4]; NH4 Acetate buffer 50 mM): 50 μmol/min/μmol enzyme
Specific Activity ([4]; NH4 Acetate buffer 100 mM): 75 μmol/min/μmol enzyme
Specific Activity ([4]; NH4 Acetate buffer 200 mM): 100 μmol/min/μmol enzyme
Specific Activity ([4]; Tris-HCl buffer 10 mM): 73 μmol/min/μmol enzyme
Specific Activity ([4]; Tris-HCl buffer 50 mM): 230 μmol/min/μmol enzyme
Specific Activity ([4]; Tris-HCl buffer 100 mM): 275 μmol/min/μmol enzyme
Specific Activity ([4]; Tris-HCl buffer 200 mM): 300 μmol/min/μmol enzyme
Optimum ionic strength for stability [5]: ≥ 200 mM
optimum stability pH [5]: 8.0±0.4
pH range in which the enzyme is stable [5]: 6-9
time within which all enzyme activity was lost ([5]; 20 mM potassium phosphate buffer, any pH 6-9, 30° C.): ≤ 2 h
time within which all enzyme activity was lost ([5]; 50 mM phosphate buffer, pH 8.2, incubation temperature above 40° C.): ≤ 48 h
enzyme activity retained ([5]; 50 mM phosphate buffer, pH 8.2, temperatures below 25° C., 48 hours): 90%
enzyme activity retained ([5]; 200 mM phosphate buffer, pH 8.2, 40° C., 48 hours): 30%
enzyme activity retained ([5]; 200 mM potassium phosphate buffer, pH 6-9, 30° C., 100 hours): at least 80%
temperature up to which good activity is retained ([5]; high salt (200 mM)): up to 40 °C
temperature up to which good activity is retained ([5]; low salt (50 mM)): up to 30 °C
